Assay results: US20230143604A1, “QW DOSING OF GIP RECEPTOR AGONIST PEPTIDE COMPOUNDS AND USES THEREOF” (TAKEDA PHARMACEUTICAL COMPANY LIMITED, priority 2020, published 2023)
Starred links: 1 amine or outer side, 2 acyl side, 3 side chain; linkers in the order of their positions; H or OH if unused. Non-standard residues stand in square brackets, D forms with d. Groups on a side chain read outwards from the residue. No end group written: not given here. *: point of attachment. C18 diacid = O=C(O)CCCCCCCCCCCCCCCCC(=O)*; C17 diacid = O=C(O)CCCCCCCCCCCCCCCC(=O)*; γGlu = O=C(O)[C@H](CCC(=O)[*:2])N[*:1]; NMeY = CN[C@@H](Cc1ccc(O)cc1)C(=O)O; AEEA = NCCOCCOCC(=O)O; Aib = CC(C)(N)C(=O)O

T1: full-length human GIPR with an N-terminal FLAG tag (human, UniProt P48546 22-466)
T1 sequence (looked up): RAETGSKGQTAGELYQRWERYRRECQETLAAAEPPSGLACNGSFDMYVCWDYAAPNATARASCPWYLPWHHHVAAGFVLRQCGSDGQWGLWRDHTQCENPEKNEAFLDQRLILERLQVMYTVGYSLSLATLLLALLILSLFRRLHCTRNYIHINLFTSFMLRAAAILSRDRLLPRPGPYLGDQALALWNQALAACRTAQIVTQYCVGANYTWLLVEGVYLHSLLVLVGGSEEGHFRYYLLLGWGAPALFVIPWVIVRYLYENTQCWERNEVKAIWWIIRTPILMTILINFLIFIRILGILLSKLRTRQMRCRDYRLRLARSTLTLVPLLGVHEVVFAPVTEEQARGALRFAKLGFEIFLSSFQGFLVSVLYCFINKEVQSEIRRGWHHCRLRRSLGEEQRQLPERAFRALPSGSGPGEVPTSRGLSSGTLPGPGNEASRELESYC


How the values were obtained:
[1] = molecular target: T1, full-length human GIPR with an …; assay: cell-based or functional assay
[2] = molecular target: full-length human GLP-1R with an N-terminal FLAG tag (human, UniProt P43220 24-463); assay: cell-based or functional assay

Binder | Human GIPR cAMP EC50, HEK293T [1] [pM] | Human GLP1R cAMP EC50, HEK293T [2] [pM]
[NMeY][Aib]EGTFISDYSI[Aib]K([AEEA-AEEA-γGlu-γGlu-C17 diacid])DR[Aib]AQ[Aib]NFVNWLLAQSPSSGAPPPS-NH2 [Compound No. 29] | 0.4 | 417000
H-Y[Aib]EGTFISDYSIALDR[Aib]AQ[Aib]K([AEEA-AEEA-γGlu-γGlu-C17 diacid])FVNWLLAQRG-OH (SMILES CC[C@H](C)[C@H](NC(=O)[C@H](CO)NC(=O)[C@H](Cc1ccc(O)cc1)NC(=O)[C@H](CC(=O)O)NC(=O)[C@H](CO)NC(=O)[C@@H](NC(=O)[C@H](Cc1ccccc1)NC(=O)[C@@H](NC(=O)CNC(=O)[C@H](CCC(=O)O)NC(=O)C(C)(C)NC(=O)[C@@H](N)Cc1ccc(O)cc1)[C@@H](C)O)[C@@H](C)CC)C(=O)N[C@@H](C)C(=O)N[C@@H](CC(C)C)C(=O)N[C@@H](CC(=O)O)C(=O)N[C@@H](CCCNC(=N)N)C(=O)NC(C)(C)C(=O)N[C@@H](C)C(=O)N[C@@H](CCC(N)=O)C(=O)NC(C)(C)C(=O)N[C@@H](CCCCNC(=O)COCCOCCNC(=O)COCCOCCNC(=O)CC[C@H](NC(=O)CC[C@H](NC(=O)CCCCCCCCCCCCCCCC(=O)O)C(=O)O)C(=O)O)C(=O)N[C@@H](Cc1ccccc1)C(=O)N[C@H](C(=O)N[C@@H](CC(N)=O)C(=O)N[C@@H](Cc1c[nH]c2ccccc12)C(=O)N[C@@H](CC(C)C)C(=O)N[C@@H](CC(C)C)C(=O)N[C@@H](C)C(=O)N[C@@H](CCC(N)=O)C(=O)N[C@@H](CCCNC(=N)N)C(=O)NCC(=O)O)C(C)C) [Compound No. 140] | 0.7 | 3980
[NMeY][Aib]EGTFISDYSIAK([G5-γGlu-C18 diacid])DR[Aib]AQ[Aib]DFVNWLLAQRPSSGAPPPS-NH2 [Compound No. 24] | 0.4 | 191000
[NMeY][Aib]EGTFISDYSIAK([G5-γGlu-C17 diacid])DR[Aib]AQ[Aib]DFVNWLLAQRPSSGAPPPS-NH2 [Compound No. 22] | 0.5 | 525000
[NMeY][Aib]EGTFISDYSIALDR[Aib]K([AEEA-AEEA-γGlu-C17 diacid])Q[Aib]DFVNWLLAQRPSSGAPPPS-NH2 [Compound No. 25] | 1.9 | 145000
Y[Aib]EGTFISDYSIALDKIAQ[Aib]K([AEEA-AEEA-γGlu-γGlu-C18 diacid])FVEWLLAQRG-OH [Compound No. 153] | 0.3 | 6760
[NMeY][Aib]EGTFISDYSIALDR[Aib]HQ[Aib]NFVNWLLAQK([AEEA-AEEA-γGlu-C18 diacid])PSSGAPPPS-NH2 [Compound No. 1] | 0.4 | 10500
Y[Aib]EGTFISDYSI[Aib]LDR[Aib]AQ[Aib]K([AEEA-AEEA-γGlu-γGlu-C18 diacid])FVNWLLAQRG-OH (not fully specified (N-terminus)) [Compound No. 141] | 0.5 | 5250
[NMeY][Aib]EGTFISDYSIALDR[Aib]AQ[Aib]K([AEEA-AEEA-γGlu-γGlu-C18 diacid])FVNWLLAQRGGGGS-NH2 [Compound No. 21] | 0.4 | 34700
YXEGTFISDYSIAXDRXAQXDFVEWLLAQRG (N-terminus H; Aib at 2,17,20; Lys(G5-C18 diacid) at 14; C-terminal OH) [Compound No. 144] | 0.9 | 15100
YXEGTFISDYSIAXDRXAQADFVEWLLAQRG (N-terminus H; Aib at 2,17; Lys(G5-C18 diacid) at 14; C-terminal OH) [Compound No. 149] | 0.7 | 15800
YXEGTFISDYSIXXDRXAQRDFVEWLLAQRG (N-terminus H; Aib at 2,13,17; Lys(G5-C18 diacid) at 14; C-terminal OH) [Compound No. 147] | 0.8 | 1660
YXEGTFISDYSIXXDSXAQXDFVNWLLAQRG (N-terminus H; Aib at 2,13,17,20; Lys(G5-C18 diacid) at 14; C-terminal OH) [Compound No. 150] | 0.4 | 13500
YXEGTFISDYSIXXDRAAQADFVEWLLAQRG (N-terminus H; Aib at 2,13; Lys(G5-C18 diacid) at 14; C-terminal OH) [Compound No. 148] | 0.4 | 8710
YXEGTFISDYSIXXDRAAQXDFVEWLLAQRG (N-terminus H; Aib at 2,13,20; Lys(G5-C18 diacid) at 14; C-terminal OH) [Compound No. 145] | 1.8 | 9330
YXEGTFISDYSIXXDRXAQADFVEWLLAQRG (N-terminus H; Aib at 2,13,17; Lys(G5-C18 diacid) at 14; C-terminal OH) [Compound No. 146] | 0.8 | 7080
Y[Aib]EGTFISDYSIALDK[Aib]AQAK([AEEA-AEEA-γGlu-γGlu-C18 diacid])FVEWLLAQRG-OH (N-terminus assumed; SMILES CC[C@H](C)[C@H](NC(=O)[C@H](CO)NC(=O)[C@H](Cc1ccc(O)cc1)NC(=O)[C@H](CC(=O)O)NC(=O)[C@H](CO)NC(=O)[C@@H](NC(=O)[C@H](Cc1ccccc1)NC(=O)[C@@H](NC(=O)CNC(=O)[C@H](CCC(=O)O)NC(=O)C(C)(C)NC(=O)[C@@H](N)Cc1ccc(O)cc1)[C@@H](C)O)[C@@H](C)CC)C(=O)N[C@@H](C)C(=O)N[C@@H](CC(C)C)C(=O)N[C@@H](CC(=O)O)C(=O)N[C@@H](CCCCN)C(=O)NC(C)(C)C(=O)N[C@@H](C)C(=O)N[C@@H](CCC(N)=O)C(=O)N[C@@H](C)C(=O)N[C@@H](CCCCNC(=O)COCCOCCNC(=O)COCCOCCNC(=O)CC[C@H](NC(=O)CC[C@H](NC(=O)CCCCCCCCCCCCCCCCC(=O)O)C(=O)O)C(=O)O)C(=O)N[C@@H](Cc1ccccc1)C(=O)N[C@H](C(=O)N[C@@H](CCC(=O)O)C(=O)N[C@@H](Cc1c[nH]c2ccccc12)C(=O)N[C@@H](CC(C)C)C(=O)N[C@@H](CC(C)C)C(=O)N[C@@H](C)C(=O)N[C@@H](CCC(N)=O)C(=O)N[C@@H](CCCNC(=N)N)C(=O)NCC(=O)O)C(C)C) [Compound No. 155] | 0.8 | 85100
Y[Aib]EGTFISDYSIALDKIAQRK([AEEA-AEEA-γGlu-γGlu-C17 diacid])FVEWLLAQRG-OH [Compound No. 143] | 0.4 | 4900
[NMeY][Aib]EGTFISDYSI[Aib]K([AEEA-AEEA-γGlu-γGlu-C18 diacid])DR[Aib]AQ[Aib]NFVNWLLAQRPSSGAPPPS-NH2 [Compound No. 28] | 0.3 | 20900
[NMeY][Aib]EGTFISDYSI[Aib]LDRK([AEEA-AEEA-γGlu-γGlu-C18 diacid])AQ[Aib]NFVNWLLAQRPSSGAPPPS-NH2 [Compound No. 26] | 0.3 | 38900
YXEGTFISDYSIXXDSAAQXDFVNWLLAQRG (N-terminus H; Aib at 2,13,20; Lys(G5-C18 diacid) at 14; C-terminal OH) [Compound No. 151] | 0.3 | 5010
YXEGTFISDYSIXXDSXAQADFVNWLLAQRG (N-terminus H; Aib at 2,13,17; Lys(G5-C18 diacid) at 14; C-terminal OH) [Compound No. 152] | 0.6 | 33100
Y[Aib]EGTFISDYSIALDKAAQ[Aib]K([AEEA-AEEA-γGlu-γGlu-C18 diacid])FVEWLLAQRG-OH [Compound No. 154] | 0.3 | 8910
[NMeY][Aib]EGTFISDYSIALDRK([AEEA-AEEA-γGlu-C18 diacid])AQ[Aib]DFVNWLLAQRPSSGAPPPS-NH2 [Compound No. 23] | 0.3 | 50100
Y[Aib]EGTFISDYSIALDKIAQQK([AEEA-AEEA-γGlu-γGlu-C17 diacid])FVEWLLAQRG-OH [Compound No. 142] | 0.4 | 158000
[NMeY][Aib]EGTFISDYSIALDRIHQ[Aib]NFVNWLLAQK([AEEA-AEEA-γGlu-C18 diacid])PSSGAPPPS-NH2 [Compound No. 2] | 0.3 | 525000
[NMeY][Aib]EGTFISDYSI[Aib]K([AEEA-AEEA-γGlu-γGlu-C17 diacid])DR[Aib]AQ[Aib]NFVNWLLAQRPSSGAPPPS-NH2 [Compound No. 14] | 0.3 | 172000
